Columns and labels:
arfp2_human ARFIP2 = target: T1, arfp2_human ARFIP2 (UniProt P53365)
T1 sequence: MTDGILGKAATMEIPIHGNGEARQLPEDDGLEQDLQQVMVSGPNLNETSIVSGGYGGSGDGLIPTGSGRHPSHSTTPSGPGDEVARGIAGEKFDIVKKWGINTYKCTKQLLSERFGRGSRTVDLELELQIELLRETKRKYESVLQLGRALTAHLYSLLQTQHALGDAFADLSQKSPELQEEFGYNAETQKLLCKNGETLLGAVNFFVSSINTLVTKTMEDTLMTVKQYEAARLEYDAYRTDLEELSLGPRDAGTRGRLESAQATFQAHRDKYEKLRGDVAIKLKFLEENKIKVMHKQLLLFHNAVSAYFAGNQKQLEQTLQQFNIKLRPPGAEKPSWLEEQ

ste20_yeast STE20 = target: T2, ste20_yeast STE20 (UniProt Q03497)
T2 sequence: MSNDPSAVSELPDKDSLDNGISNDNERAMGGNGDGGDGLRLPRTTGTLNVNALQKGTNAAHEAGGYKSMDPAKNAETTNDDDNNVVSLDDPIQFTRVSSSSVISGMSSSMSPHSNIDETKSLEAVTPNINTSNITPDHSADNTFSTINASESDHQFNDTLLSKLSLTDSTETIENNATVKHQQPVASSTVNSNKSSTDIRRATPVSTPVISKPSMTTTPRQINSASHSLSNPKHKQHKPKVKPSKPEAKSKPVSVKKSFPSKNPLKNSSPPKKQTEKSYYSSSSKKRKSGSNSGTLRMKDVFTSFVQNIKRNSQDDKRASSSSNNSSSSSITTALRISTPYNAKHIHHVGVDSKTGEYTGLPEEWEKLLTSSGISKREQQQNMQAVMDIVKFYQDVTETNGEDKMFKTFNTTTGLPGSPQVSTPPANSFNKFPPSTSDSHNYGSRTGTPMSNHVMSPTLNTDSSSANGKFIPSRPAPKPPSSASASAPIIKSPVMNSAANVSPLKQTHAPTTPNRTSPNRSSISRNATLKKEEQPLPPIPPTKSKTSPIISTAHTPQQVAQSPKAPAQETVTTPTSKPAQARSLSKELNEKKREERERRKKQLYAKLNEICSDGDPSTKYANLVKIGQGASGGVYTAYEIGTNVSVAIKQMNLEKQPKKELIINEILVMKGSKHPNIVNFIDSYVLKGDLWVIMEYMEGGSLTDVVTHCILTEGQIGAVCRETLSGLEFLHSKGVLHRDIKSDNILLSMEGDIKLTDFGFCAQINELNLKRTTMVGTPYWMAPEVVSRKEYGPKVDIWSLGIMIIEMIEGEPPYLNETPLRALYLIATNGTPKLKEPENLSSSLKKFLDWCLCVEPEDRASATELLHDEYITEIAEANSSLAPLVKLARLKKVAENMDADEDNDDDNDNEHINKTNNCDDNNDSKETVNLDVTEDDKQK

Ras-related C3 botulinum toxin substrate 1 (Homo sapiens) (from UniProt P63000) T35A
effect of a mutation on the interaction (arfp2_human ARFIP2): decreasing interaction

Ras-related C3 botulinum toxin substrate 1 (Homo sapiens) (from UniProt P63000) G12V
effect of a mutation on the interaction (ste20_yeast STE20): increasing interaction
